From publication PMC8892010

Key:
[1] = inside-out patch clamp, G-V Boltzmann fits, 0 Ca2+; settings: glycan lost, untreated cells; for other: BK channel gating modulation: control: γ2 WT
[2] = whole-cell lysate anti-FLAG immunoblot; settings: glycan lost, untreated cells
[3] = cell surface immunoprecipitation, N-terminal FLAG; settings: glycan lost, untreated cells; for localisation_or_trafficking, other: percent decrease: control: γ1 WT
[4] = inside-out patch clamp, G-V, 0 Ca2+; settings: glycan lost; control: γ3 WT, untreated cells

B1: BK channel γ1 subunit (LRRC26): tunicamycin (protein)
parent chain: MRGPSWSRPRPLLLLLLLLSPWPVWAQVSATASPSGSLGAPDCPEVCTCVPGGLASCSALSLPAVPPGLSLRLRALLLDHNRVRALPPGAFAGAGALQRLDLRENGLHSVHVRAFWGLGALQLLDLSANQLEALAPGTFAPLRALRNLSLAGNRLARLEPAALGALPLLRSLSLQDNELAALAPGLLGRLPALDALHLRGNPWGCGCALRPLCAWLRRHPLPASEAETVLCVWPGRLTLSPLTAFSDAAFSHCAQPLALRDLAVVYTLGPASFLVSLASCLALGSGLTACRARRRRLRTAALRPPRPPDPNPDPDPHGCASPADPGSPAAAAQA
other: BK channel gating modulation, other: fraction of channels not modulated ([1]; control: γ1 WT): decreases
expression_or_secretion ([2]; control: γ1 WT): no change
localisation_or_trafficking, other: percent decrease [3]: decreases

B2: BK channel γ1 subunit (LRRC26): N147Q (protein)
parent chain: MRGPSWSRPRPLLLLLLLLSPWPVWAQVSATASPSGSLGAPDCPEVCTCVPGGLASCSALSLPAVPPGLSLRLRALLLDHNRVRALPPGAFAGAGALQRLDLRENGLHSVHVRAFWGLGALQLLDLSANQLEALAPGTFAPLRALRNLSLAGNRLARLEPAALGALPLLRSLSLQDNELAALAPGLLGRLPALDALHLRGNPWGCGCALRPLCAWLRRHPLPASEAETVLCVWPGRLTLSPLTAFSDAAFSHCAQPLALRDLAVVYTLGPASFLVSLASCLALGSGLTACRARRRRLRTAALRPPRPPDPNPDPDPHGCASPADPGSPAAAAQA
expression_or_secretion ([2]; control: γ1 WT): no change
localisation_or_trafficking, other: percent decrease [3]: decreases

B3: BK channel γ2 subunit (LRRC52): N148Q (protein)
parent chain: MSLASGPGPGWLLFSFGMGLVSGSKCPNNCLCQAQEVICTGKQLTEYPLDIPLNTRRLFLNENRITSLPAMHLGLLSDLVYLDCQNNRIREVMDYTFIGVFKLIYLDLSSNNLTSISPFTFSVLSNLVQLNIANNPHLLSLHKFTFANTTSLRYLDLRNTGLQTLDSAALYHLTTLETLFLSGNPWKCNCSFLDFAIFLIVFHMDPSDDLNATCVEPTELTGWPITRVGNPLRYMCITHLDHKDYIFLLLIGFCIFAAGTVAAWLTGVCAVLYQNTRHKSSEEDEDEAGTRVEVSRRIFQTQTSSVQEFPQLI
other: BK channel gating modulation [1]: decreases

B4: BK channel γ2 subunit (LRRC52): tunicamycin (protein)
parent chain: MSLASGPGPGWLLFSFGMGLVSGSKCPNNCLCQAQEVICTGKQLTEYPLDIPLNTRRLFLNENRITSLPAMHLGLLSDLVYLDCQNNRIREVMDYTFIGVFKLIYLDLSSNNLTSISPFTFSVLSNLVQLNIANNPHLLSLHKFTFANTTSLRYLDLRNTGLQTLDSAALYHLTTLETLFLSGNPWKCNCSFLDFAIFLIVFHMDPSDDLNATCVEPTELTGWPITRVGNPLRYMCITHLDHKDYIFLLLIGFCIFAAGTVAAWLTGVCAVLYQNTRHKSSEEDEDEAGTRVEVSRRIFQTQTSSVQEFPQLI
other: BK channel gating modulation [1]: abolishes
expression_or_secretion ([2]; control: γ2 WT): decreases

B5: BK channel γ2 subunit (LRRC52): N112Q/N211Q (protein)
parent chain: MSLASGPGPGWLLFSFGMGLVSGSKCPNNCLCQAQEVICTGKQLTEYPLDIPLNTRRLFLNENRITSLPAMHLGLLSDLVYLDCQNNRIREVMDYTFIGVFKLIYLDLSSNNLTSISPFTFSVLSNLVQLNIANNPHLLSLHKFTFANTTSLRYLDLRNTGLQTLDSAALYHLTTLETLFLSGNPWKCNCSFLDFAIFLIVFHMDPSDDLNATCVEPTELTGWPITRVGNPLRYMCITHLDHKDYIFLLLIGFCIFAAGTVAAWLTGVCAVLYQNTRHKSSEEDEDEAGTRVEVSRRIFQTQTSSVQEFPQLI
other: BK channel gating modulation [1]: decreases

B6: BK channel γ2 subunit (LRRC52): triple-site mutant (N112Q/N148Q/N211Q) (protein)
parent chain: MSLASGPGPGWLLFSFGMGLVSGSKCPNNCLCQAQEVICTGKQLTEYPLDIPLNTRRLFLNENRITSLPAMHLGLLSDLVYLDCQNNRIREVMDYTFIGVFKLIYLDLSSNNLTSISPFTFSVLSNLVQLNIANNPHLLSLHKFTFANTTSLRYLDLRNTGLQTLDSAALYHLTTLETLFLSGNPWKCNCSFLDFAIFLIVFHMDPSDDLNATCVEPTELTGWPITRVGNPLRYMCITHLDHKDYIFLLLIGFCIFAAGTVAAWLTGVCAVLYQNTRHKSSEEDEDEAGTRVEVSRRIFQTQTSSVQEFPQLI
expression_or_secretion ([2]; control: γ2 WT): decreases

B7: BK channel γ2 subunit (LRRC52): N211Q (protein)
parent chain: MSLASGPGPGWLLFSFGMGLVSGSKCPNNCLCQAQEVICTGKQLTEYPLDIPLNTRRLFLNENRITSLPAMHLGLLSDLVYLDCQNNRIREVMDYTFIGVFKLIYLDLSSNNLTSISPFTFSVLSNLVQLNIANNPHLLSLHKFTFANTTSLRYLDLRNTGLQTLDSAALYHLTTLETLFLSGNPWKCNCSFLDFAIFLIVFHMDPSDDLNATCVEPTELTGWPITRVGNPLRYMCITHLDHKDYIFLLLIGFCIFAAGTVAAWLTGVCAVLYQNTRHKSSEEDEDEAGTRVEVSRRIFQTQTSSVQEFPQLI
other: BK channel gating modulation [1]: decreases

B8: BK channel γ2 subunit (LRRC52): N112Q (protein)
parent chain: MSLASGPGPGWLLFSFGMGLVSGSKCPNNCLCQAQEVICTGKQLTEYPLDIPLNTRRLFLNENRITSLPAMHLGLLSDLVYLDCQNNRIREVMDYTFIGVFKLIYLDLSSNNLTSISPFTFSVLSNLVQLNIANNPHLLSLHKFTFANTTSLRYLDLRNTGLQTLDSAALYHLTTLETLFLSGNPWKCNCSFLDFAIFLIVFHMDPSDDLNATCVEPTELTGWPITRVGNPLRYMCITHLDHKDYIFLLLIGFCIFAAGTVAAWLTGVCAVLYQNTRHKSSEEDEDEAGTRVEVSRRIFQTQTSSVQEFPQLI
other: BK channel gating modulation [1]: decreases

B9: BK channel γ2 subunit (LRRC52): N148Q/N211Q (protein)
parent chain: MSLASGPGPGWLLFSFGMGLVSGSKCPNNCLCQAQEVICTGKQLTEYPLDIPLNTRRLFLNENRITSLPAMHLGLLSDLVYLDCQNNRIREVMDYTFIGVFKLIYLDLSSNNLTSISPFTFSVLSNLVQLNIANNPHLLSLHKFTFANTTSLRYLDLRNTGLQTLDSAALYHLTTLETLFLSGNPWKCNCSFLDFAIFLIVFHMDPSDDLNATCVEPTELTGWPITRVGNPLRYMCITHLDHKDYIFLLLIGFCIFAAGTVAAWLTGVCAVLYQNTRHKSSEEDEDEAGTRVEVSRRIFQTQTSSVQEFPQLI
other: BK channel gating modulation [1]: decreases

B10: BK channel γ2 subunit (LRRC52): N112Q/N148Q (protein)
parent chain: MSLASGPGPGWLLFSFGMGLVSGSKCPNNCLCQAQEVICTGKQLTEYPLDIPLNTRRLFLNENRITSLPAMHLGLLSDLVYLDCQNNRIREVMDYTFIGVFKLIYLDLSSNNLTSISPFTFSVLSNLVQLNIANNPHLLSLHKFTFANTTSLRYLDLRNTGLQTLDSAALYHLTTLETLFLSGNPWKCNCSFLDFAIFLIVFHMDPSDDLNATCVEPTELTGWPITRVGNPLRYMCITHLDHKDYIFLLLIGFCIFAAGTVAAWLTGVCAVLYQNTRHKSSEEDEDEAGTRVEVSRRIFQTQTSSVQEFPQLI
other: BK channel gating modulation [1]: decreases

B11: BK channel γ3 subunit (LRRC55): tunicamycin (protein)
parent chain: MGDTWAQLPWPGPPHPAMLLISLLLAAGLMHSDAGTSCPVLCTCRNQVVDCSSQRLFSVPPDLPMDTRNLSLAHNRITAVPPGYLTCYMELQVLDLHNNSLMELPRGLFLHAKRLAHLDLSYNNFSHVPADMFQEAHGLVHIDLSHNPWLRRVHPQAFQGLMQLRDLDLSYGGLAFLSLEALEGLPGLVTLQIGGNPWVCGCTMEPLLKWLRNRIQRCTADSQLAECRGPPEVEGAPLFSLTEESFKACHLTLTLDDYLFIAFVGFVVSIASVATNFLLGITANCCHRWSKASEEEEI
other: BK channel gating modulation, other: V1/2 [4]: abolishes, 160.1 ± 7.4 vs 115.0 ± 1.7
localisation_or_trafficking ([3]; control: γ3 WT): abolishes
